Laboratory results reported in US9453060B2, “Protein engineered systems for delivery of molecules” (New York University, priority 2013, dated 2016).

B1: CSP: engineered supercharged coiled-coil protein, SEQ ID NO:1; COMPcc with eight solvent-exposed residues mutated to arginine (protein)
chain: MRGSHHHHHHGSGRLRPQMLRELQRTNAALRDVRELLRQQVKEITRLKNTVRRSRASGKLN
modifications: supercharged coiled-coil protein
notes: COMPcc with eight solvent-exposed residues mutated to arginine
B2: COMPcc: cartilage oligomeric matrix protein coiled-coil, parent protein, SEQ ID NO:2 (protein)
chain: MRGSHHHHHHGSGDLAPQMLRELQETNAALQDVRELLRQQVKEITFLKNTVMESDASGKLN
modifications: supercharged coiled-coil protein

Tests used:
[1] = CD spectroscopy temperature scan (melting temperature); format: physicochemical; conditions: CD at 222 nm
Protocol: CD spectroscopy. The secondary structure of CSP/COMPcc was analyzed using a Jasco J-815 spectrometer at 10 μM protein concentration in 50 mM Tris-HCl buffer pH 8.0. The wavelength scans were performed at 4° C. over a range of 200-250 nm with a 1 nm step size. Temperature scans were performed at 222 nm from 20° C. to 85° C. with temperature ramp of 1° C./min The observed ellipticity value (Θ) was converted into mean residue ellipticity (MRE) using the standard equation ΘMRE=Θ/(10 cpl) where c is the molar concentration of the protein, p is the path length in centimeters and l is the number of amino acids. The fraction folded was derived using equation F=(ΘA−ΘU)/(ΘN−ΘU), where, ΘA is the MRE observed at given temperature, ΘU is MRE value for completely unfolded protein and ΘN is the MRE value of completely folded protein that is considered at 25° C. The first derivative of fraction folded was used to calculate melting temperature (Tm) of protein. All data were represented as an average of three trials.

[2] = Curcumin binding/loading to protein
MC3T3-E1 cells = assay: Cell viability by MTT assay; format: cell-based, mouse
Protocol: Cell viability studies. The cells were seeded in 96-well plate at a density of […] in αMEM with 10% FBS and incubated at 37° C. with 5% CO2 overnight. The cytotoxicity of different complexes was evaluated by 3-(4,5-dimethylthiazol-2-yl)-2,5-diphenyl […] bromide, MTT assay. Approximately 10 μL of MTT reagent from 5 mg/mL stock was added to each well and incubated for 4 hours at 37° C. with 5% CO2. After incubation, the entire medium was aspirated and 100 μL of dimethyl sulfoxide was added to each well. The change in absorbance of colored solution was observed using a microplate reader Synergy HT at 570 nm. The percent cell viability was calculated by normalizing the observed absorbance value to that of the control cells without any treatment. The data was represented as the average of quadruplicates±standard deviation.

[3] = Doxorubicin binding/loading to protein
MCF7 = assay: β-galactosidase gene transfection across different cell lines; format: cell-based
[4] = tested on: β-galactosidase plasmid DNA; assay: Electrophoretic mobility shift assay (gel retardation) of protein binding to plasmid DNA; conditions: protein to DNA w/w ratio 18:1
Protocol: The β-galactosidase plasmid DNA (5.1 kb) at a concentration of 50 ng was mixed with different concentrations of CSP and COMPcc and incubated at room temperature for 30 minutes. The mixtures were run on 1% agarose gel (stained with ethidium bromide) and imaged under UV light using ImageQuant (GE healthcare).

Molecule | decrease in the melting temperature (Tm) in comparison to the parent COMPcc [1] | curcumin loading [2] | cytotoxicity (in words) (MC3T3-E1 cells) | doxorubicin loading [3] | β-galactosidase gene transfection (in words) (MCF7) | DNA shift at higher protein to DNA ratio [4]
B1 | 10 °C | 63% | not cytotoxic | 31% | drastic increase in transfection | –
B2 | – | 64% | – | 26% | – | negligible DNA shift
